What was measured:
N=C(N)NCCC[C@H](N)C(=O)O = assay: purified protein; conditions: pH 5 (100 mM acetic acid-sodium acetate), 100 mM NaCl, 0.1 mM PLP, 10% glycerol, 20 °C, 10 nM Adc, decarboxylation to agmatine, parentheses = 2.5%-97.5% confidence interval
[1] = target: Providencia stuartii arginine decarboxylase Adc (Providencia stuartii); assay: mass photometry; Refeyn OneMP; 30 nM Adc at pH 5.0 and 20 nM Adc at pH 6.5; only the decamer and species below it analysed
[2] = target: Providencia stuartii arginine decarboxylase Adc (Providencia stuartii); assay: cryo-EM structure; isolated Adc decamer, about 0.25 mg/mL, 25 mM MES, 150 mM NaCl, 1 mM DTT, 0.1 mM PLP, pH 6.5; D5 symmetry

Row | Substance | Km (N=C(N)NCCC[C@H](N)C(=O)O) | kcat (N=C(N)NCCC[C@H](N)C(=O)O) | stoichiometry N [1] | stoichiometry N [2]
1 | Providencia stuartii arginine decarboxylase (Adc) (Providencia stuartii) | 0.331 (0.28, 0.38) mM | 102 (97, 108) s^-1 | – | –
2 | Providencia stuartii arginine decarboxylase Adc (enzyme) | – | – | 10 | 10

Reference: publication PMC8983666, “Structural and biochemical characterisation of the Providencia stuartii arginine decarboxylase shows distinct polymerisation and regulation” (Communications Biology, 2022)
